For assay [1], the target named is bovine cardiac troponin T (bovine) (UniProt P13789).
The target of assay [2] is rabbit α-tropomyosin purified from ventricular muscle (rabbit) (UniProt P58772). The assay can be described thus: ELISA solid phase protein binding: cTnT coated, serial dilutions of rabbit α-tropomyosin, detected with mAb CH1; concentration of tropomyosin for 50% maximum binding. For orientation: ELISA stands for enzyme-linked immunosorbent assay.
Assay [3] concerns the target bovine cardiac troponin I purified from ventricular muscle (bovine) (UniProt P08057). The assay can be described thus: ELISA solid phase protein binding: cTnT coated, serial dilutions of bovine cardiac TnI, detected with mAb TnI-1; concentration of TnI required to reach 50% of maximum binding.

Take µ-calpain (Calbiochem) (enzyme): in assay [1], the relative amounts of intact and NH2-terminal truncated cTnT, densitometry of mAb CT3 Western blots of µ-calpain treated bovine cardiac myofibrils (% intact cTnT) is 1.5. With “intact mouse cardiac troponin T (TnT4), expressed in E. coli (from UniProt P50752)”, the values for the EC50 in assay [2] and in assay [3] were 13.5 nM and 15.3 nM, respectively. For “NH2-terminal truncated mouse cardiac troponin T (McTnT-ND72-291), reconstructed and expressed in E. coli (from UniProt P50752)” the same measures were 9.73 nM and 8.73 nM.

The term EC50 denotes the concentration needed to bring the measured effect to its halfway point. A low value points to higher potency in that assay.

The values are drawn from patent US20080032929A1.
